# Assay results reported in the supplement of paper PMC5998384.
# Experiments:
# HeLa Kyoto [1] = assay: solubility in G1/S (NP-40 vs SDS abundance) (log2 ratio); higher = more soluble; conditions: cell cycle stage: G1/S
# HeLa Kyoto [2] = assay: solubility change mitosis vs G1/S (difference of NP-40 vs SDS log2 ratios) (log2 ratio difference); higher = more soluble in mitosis
# 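For solubility change mitosis vs G1/S (difference of NP-40 vs SDS log2 ratios) in this document: synchronized HeLa Kyoto cells (double thymidine block for G1/S, nocodazole release for mitosis), protein amounts in NP-40 versus SDS lysates quantified by mass spectrometry, three biological replicates.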
# 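For solubility in G1/S (NP-40 vs SDS abundance) in this document: HeLa Kyoto cells arrested at G1/S by double thymidine block, proteins quantified by TMT10plex mass spectrometry in mild NP-40 versus SDS extracts, three biological replicates.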
sequence,measurement,setting,value
MDAAEPGLPPGPEGRKRYSDIFRSLDNLEISLGNVTLEMLAGDPLLSEDPEPDKTPTATVTNEASCWSGPSPEGPVPLTGEELDLRLIRTKGGVDAALEYAKTWSRYAKELLAWTEKRASYELEFAKSTMKIAEAGKVSIQQQSHMPLQYIYTLFLEHDLSLGTLAMETVAQQKRDYYQPLAAKRTEIEKWRKEFKEQWMKEQKRMNEAVQALRRAQLQYVQRSEDLRARSQGSPEDSAPQASPGPSKQQERRRRSREEAQAKAQEAEALYQACVREANARQQDLEIAKQRIVSHVRKLVFQGDEVLRRVTLSLFGLRGAQAERGPRAFAALAECCAPFEPGQRYQEFVRALRPEAPPPPPPAFSFQEFLPSLNSSPLDIRKKLSGPLPPRLDENSAEPGPWEDPGTGWRWQGTPGPTPGSDVDSVGGGSESRSLDSPTSSPGAGTRQLVKASSTGTESSDDFEERDPDLGDGLENGLGSPFGKWTLSSAAQTHQLRRLRGPAKCRECEAFMVSGTECEECFLTCHKRCLETLLILCGHRRLPARTPLFGVDFLQLPRDFPEEVPFVVTKCTAEIEHRALDVQGIYRVSGSRVRVERLCQAFENGRALVELSGNSPHDVSSVLKRFLQELTEPVIPFHLYDAFISLAKTLHADPGDDPGTPSPSPEVIRSLKTLLVQLPDSNYNTLRHLVAHLFRVAARFMENKMSANNLGIVFGPTLLRPPDGPRAASAIPVTCLLDSGHQAQLVEFLIVHYEQIFGMDELPQATEPPPQDSSPAPGPLTTSSQPPPPHLDPDSQPPVLASDPGPDPQHHSTLEQHPTATPTEIPTPQSDQREDVAEDTKDGGGEVSSQGPEDSLLGTQSRGHFSRQPVKYPRGGVRPVTHQLSSLALVASKLCEETPITSVPRGSLRGRGPSPAAASPEGSPLRRTPLPKHFEITQETARLLSKLDSEAVPRATCCPDVQPEEAEDHL [GMIP],solubility in G1/S (log2),HeLa Kyoto [1],0.095
same,solubility change mitosis (log2),HeLa Kyoto [2],0.0497
MDEEPERTKRWEGGYERTWEILKEDESGSLKATIEDILFKAKRKRVFEHHGQVRLGMMRHLYVVVDGSRTMEDQDLKPNRLTCTLKLLEYFVEEYFDQNPISQIGIIVTKSKRAEKLTELSGNPRKHITSLKEAVDMTCHGEPSLYNSLSMAMQTLKHMPGHTSREVLIIFSSLTTCDPSNIYDLIKTLKAAKIRVSVIGLSAEVRVCTVLARETGGTYHVILDESHYKELLTHHLSPPPASSSSECSLIRMGFPQHTIASLSDQDAKPSFSMAHLDGNTEPGLTLGGYFCPQCRAKYCELPVECKICGLTLVSAPHLARSYHHLFPLDAFQEIPLEEYNGERFCYGCQGELKDQHVYVCAVCQNVFCVDCDVFVHDSLHCCPGCIHKIPAPSGV [GTF2H2C],solubility in G1/S (log2),HeLa Kyoto [1],-0.398
same,solubility change mitosis (log2),HeLa Kyoto [2],0.181
MDEKTKKAEEMALSLTRAVAGGDEQVAMKCAIWLAEQRVPLSVQLKPEVSPTQDIRLWVSVEDAQMHTVTIWLTVRPDMTVASLKDMVFLDYGFPPVLQQWVIGQRLARDQETLHSHGVRQNGDSAYLYLLSARNTSLNPQELQRERQLRMLEDLGFKDLTLQPRGPLEPGPPKPGVPQEPGRGQPDAVPEPPPVGWQCPGCTFINKPTRPGCEMCCRARPEAYQVPASYQPDEEERARLAGEEEALRQYQQRKQQQQEGNYLQHVQLDQRSLVLNTEPAECPVCYSVLAPGEAVVLRECLHTFCRECLQGTIRNSQEAEVSCPFIDNTYSCSGKLLEREIKALLTPEDYQRFLDLGISIAENRSAFSYHCKTPDCKGWCFFEDDVNEFTCPVCFHVNCLLCKAIHEQMNCKEYQEDLALRAQNDVAARQTTEMLKVMLQQGEAMRCPQCQIVVQKKDGCDWIRCTVCHTEICWVTKGPRWGPGGPGDTSGGCRCRVNGIPCHPSCQNCH [RBCK1],solubility in G1/S (log2),HeLa Kyoto [1],0.08
same,solubility change mitosis (log2),HeLa Kyoto [2],-0.0181
MDEPPFSEAALEQALGEPCDLDAALLTDIEDMLQLINNQDSDFPGLFDPPYAGSGAGGTDPASPDTSSPGSLSPPPATLSSSLEAFLSGPQAAPSPLSPPQPAPTPLKMYPSMPAFSPGPGIKEESVPLSILQTPTPQPLPGALLPQSFPAPAPPQFSSTPVLGYPSPPGGFSTGSPPGNTQQPLPGLPLASPPGVPPVSLHTQVQSVVPQQLLTVTAAPTAAPVTTTVTSQIQQVPVLLQPHFIKADSLLLTAMKTDGATVKAAGLSPLVSGTTVQTGPLPTLVSGGTILATVPLVVDAEKLPINRLAAGSKAPASAQSRGEKRTAHNAIEKRYRSSINDKIIELKDLVVGTEAKLNKSAVLRKAIDYIRFLQHSNQKLKQENLSLRTAVHKSKSLKDLVSACGSGGNTDVLMEGVKTEVEDTLTPPPSDAGSPFQSSPLSLGSRGSGSGGSGSDSEPDSPVFEDSKAKPEQRPSLHSRGMLDRSRLALCTLVFLCLSCNPLASLLGARGLPSPSDTTSVYHSPGRNVLGTESRDGPGWAQWLLPPVVWLLNGLLVLVSLVLLFVYGEPVTRPHSGPAVYFWRHRKQADLDLARGDFAQAAQQLWLALRALGRPLPTSHLDLACSLLWNLIRHLLQRLWVGRWLAGRAGGLQQDCALRVDASASARDAALVYHKLHQLHTMGKHTGGHLTATNLALSALNLAECAGDAVSVATLAEIYVAAALRVKTSLPRALHFLTRFFLSSARQACLAQSGSVPPAMQWLCHPVGHRFFVDGDWSVLSTPWESLYSLAGNPVDPLAQVTQLFREHLLERALNCVTQPNPSPGSADGDKEFSDALGYLQLLNSCSDAAGAPAYSFSISSSMATTTGVDPVAKWWASLTAVVIHWLRRDEEAAERLCPLVEHLPRVLQESERPLPRAALHSFKAARALLGCAKAESGPASLTICEKASGYLQDSLATTPASSSIDKAVQLFLCDLLLVVRTSLWRQQQPPAPAPAAQGTSSRPQASALELRGFQRDLSSLRRLAQSFRPAMRRVFLHEATARLMAGASPTRTHQLLDRSLRRRAGPGGKGGAVAELEPRPTRREHAEALLLASCYLPPGFLSAPGQRVGMLAEAARTLEKLGDRRLLHDCQQMLMRLGGGTTVTSS [SREBF1],solubility in G1/S (log2),HeLa Kyoto [1],-0.139
same,solubility change mitosis (log2),HeLa Kyoto [2],-0.263
MDHTDNELQGTNSSGSLGGLDVRRRIPIKLISKQANKAKPAPRTQRTINRMPAKAPPGDEEGFDYNEEERYDCKGGELFANQRRFPGHLFWDFQINILGEKDDTPVHFCDKCGLPIKIYGRMIPCKHVFCYDCAILHEKKGDKMCPGCSDPVQRIEQCTRGSLFMCSIVQGCKRTYLSQRDLQAHINHRHMRAGKPVTRASLENVHPPIAPPPTEIPERFIMPPDKHHMSHIPPKQHIMMPPPPLQHVPHEHYNQPHEDIRAPPAELSMAPPPPRSVSQETFRISTRKHSNLITVPIQDDSNSGAREPPPPAPAPAHHHPEYQGQPVVSHPHHIMPPQQHYAPPPPPPPPISHPMPHPPQAAGTPHLVYSQAPPPPMTSAPPPITPPPGHIIAQMPPYMNHPPPGPPPPQHGGPPVTAPPPHHYNPNSLPQFTEDQGTLSPPFTQPGGMSPGIWPAPRGPPPPPRLQGPPSQTPLPGPHHPDQTRYRPYYQ [CBLL1],solubility in G1/S (log2),HeLa Kyoto [1],0.175
same,solubility change mitosis (log2),HeLa Kyoto [2],-0.286
MDIAIHHPWIRRPFFPFHSPSRLFDQFFGEHLLESDLFPTSTSLSPFYLRPPSFLRAPSWFDTGLSEMRLEKDRFSVNLDVKHFSPEELKVKVLGDVIEVHGKHEERQDEHGFISREFHRKYRIPADVDPLTITSSLSSDGVLTVNGPRKQVSGPERTIPITREEKPAVTAAPKK [CRYAB],solubility in G1/S (log2),HeLa Kyoto [1],-0.171
same,solubility change mitosis (log2),HeLa Kyoto [2],0.00397
MDLVGVASPEPGTAAAWGPSKCPWAIPQNTISCSLADVMSEQLAKELQLEEEAAVFPEVAVAEGPFITGENIDTSSDLMLAQMLQMEYDREYDAQLRREEKKFNGDSKVSISFENYRKVHPYEDSDSSEDEVDWQDTRDDPYRPAKPVPTPKKGFIGKGKDITTKHDEVVCGRKNTARMENFAPEFQVGDGIGMDLKLSNHVFNALKQHAYSEERRSARLHEKKEHSTAEKAVDPKTRLLMYKMVNSGMLETITGCISTGKESVVFHAYGGSMEDEKEDSKVIPTECAIKVFKTTLNEFKNRDKYIKDDFRFKDRFSKLNPRKIIRMWAEKEMHNLARMQRAGIPCPTVVLLKKHILVMSFIGHDQVPAPKLKEVKLNSEEMKEAYYQTLHLMRQLYHECTLVHADLSEYNMLWHAGKVWLIDVSQSVEPTHPHGLEFLFRDCRNVSQFFQKGGVKEALSERELFNAVSGLNITADNEADFLAEIEALEKMNEDHVQKNGRKAASFLKDDGDPPLLYDE [RIOK3],solubility in G1/S (log2),HeLa Kyoto [1],0.0978
same,solubility change mitosis (log2),HeLa Kyoto [2],-0.00535
MDNAVDGLDKASIANSDGPTAGSQTPPFKRKGKLSTIGKIFKPWKWRKKKTSDKFRETSAVLERKISTRQSREELIRRGVLKELPDQDGDVTVNFENSNGHMIPIGEESTREENVVKSEEGNGSVSEKTPPLEEQAEDKKENTENHSETPAAPALPPSAPPKPRPKPKPKKSPVPPKGATAGASHKGDEVPPIKKNTKAPGKQAPVPPPKPASRNTTREAAGSSHSKKTTGSKASASPSTSSTSSRPKASKETVSSKAGTVGTTKGKRKTDKQPITSHLSSDTTTSGTSDLKGEPAETRVESFKLEQTVPGAEEQNTGKFKSMVPPPPVAPAPSPLAPPLPLEDQCITASDTPVVLVSVGADLPVSALDPSQLLWAEEPTNRTTLYSGTGLSVNRENAKCFTTKEELGKTVPQLLTPGLMGESSESFSASEDEGHREYQANDSDSDGPILYTDDEDEDEDEDGSGESALASKIRRRDTLAIKLGNRPSKKELEDKNILQRTSEEERQEIRQQIGTKLVRRLSQRPTTEELEQRNILKQKNEEEEQEAKMELKRRLSRKLSLRPTVAELQARRILRFNEYVEVTDSPDYDRRADKPWARLTPADKAAIRKELNEFKSTEMEVHEESRQFTRFHRP [PHACTR2],solubility in G1/S (log2),HeLa Kyoto [1],0.45
same,solubility change mitosis (log2),HeLa Kyoto [2],-0.286
MDPDPQAGVQVGMRVVRGVDWKWGQQDGGEGGVGTVVELGRHGSPSTPDRTVVVQWDQGTRTNYRAGYQGAHDLLLYDNAQIGVRHPNIICDCCKKHGLRGMRWKCRVCLDYDLCTQCYMHNKHELAHAFDRYETAHSRPVTLSPRQGLPRIPLRGIFQGAKVVRGPDWEWGSQDGGEGKPGRVVDIRGWDVETGRSVASVTWADGTTNVYRVGHKGKVDLKCVGEAAGGFYYKDHLPRLGKPAELQRRVSADSQPFQHGDKVKCLLDTDVLREMQEGHGGWNPRMAEFIGQTGTVHRITDRGDVRVQFNHETRWTFHPGALTKHHSFWVGDVVRVIGDLDTVKRLQAGHGEWTDDMAPALGRVGKVVKVFGDGNLRVAVAGQRWTFSPSCLVAYRPEEDANLDVAERARENKSSLSVALDKLRAQKSDPEHPGRLVVEVALGNAARALDLLRRRPEQVDTKNQGRTALQVAAYLGQVELIRLLLQARAGVDLPDDEGNTALHYAALGNQPEATRVLLSAGCRADAINSTQSTALHVAVQRGFLEVVRALCERGCDVNLPDAHSDTPLHSAISAGTGASGIVEVLTEVPNIDVTATNSQGFTLLHHASLKGHALAVRKILARARQLVDAKKEDGFTALHLAALNNHREVAQILIREGRCDVNVRNRKLQSPLHLAVQQAHVGLVPLLVDAGCSVNAEDEEGDTALHVALQRHQLLPLVADGAGGDPGPLQLLSRLQASGLPGSAELTVGAAVACFLALEGADVSYTNHRGRSPLDLAAEGRVLKALQGCAQRFRERQAGGGAAPGPRQTLGTPNTVTNLHVGAAPGPEAAECLVCSELALLVLFSPCQHRTVCEECARRMKKCIRCQVVVSKKLRPDGSEVASAAPAPGPPRQLVEELQSRYRQMEERITCPICIDSHIRLVFQCGHGACAPCGSALSACPICRQPIRDRIQIFV [MIB2],solubility in G1/S (log2),HeLa Kyoto [1],-0.12
same,solubility change mitosis (log2),HeLa Kyoto [2],-0.0211
MDPIRSFCGKLRSLASTLDCETARLQRALDGEESDFEDYPMRILYDLHSEVQTLKDDVNILLDKARLENQEGIDFIKATKVLMEKNSMDIMKIREYFQKYGYSPRVKKNSVHEQEAINSDPELSNCENFQKTDVKDDLSDPPVASSCISEKSPRSPQLSDFGLERYIVSQVLPNPPQAVNNYKEEPVIVTPPTKQSLVKVLKTPKCALKMDDFECVTPKLEHFGISEYTMCLNEDYTMGLKNARNNKSEEAIDTESRLNDNVFATPSPIIQQLEKSDAEYTNSPLVPTFCTPGLKIPSTKNSIALVSTNYPLSKTNSSSNDLEVEDRTSLVLNSDTCFENLTDPSSPTISSYENLLRTPTPPEVTKIPEDILQLLSKYNSNLATPIAIKAVPPSKRFLKHGQNIRDVSNKEN [SKA3],solubility in G1/S (log2),HeLa Kyoto [1],0.436
same,solubility change mitosis (log2),HeLa Kyoto [2],0.0344
